Source: the supplement of paper PMC9170038

Test system: MS2 coat protein
Experiment: apparent KD of MS2 coat protein; designed switch direction (-1 OFF switch, 1 ON switch): -1; higher = weaker reporter binding
How it was run: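 Designed RNA switches were transcribed on Illumina chips by stalled E. coli RNA polymerase and titrated with SNAP-549-labelled MS2 coat protein from 0.7 or 1.5 nM, doubling to 3 µM. Step length ran from 0.8–1.5 h at the lowest concentration to 10–20 min at the highest. The apparent KD is the median over clusters for each design, from curve-fitted normalised cluster fluorescence.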

[1] = input ligand: microRNA oligo, concentration not stated
[2] = Eterna round: R95, input ligand: microRNA oligo, concentration not stated
[3] = Eterna round: R95, input ligand: FMN 200 uM
[4] = Eterna round: R95, input ligand: none

Sequence	apparent KD of MS2 coat protein (input ligand: FMN 200 uM) [nM]	apparent KD of MS2 coat protein [1] [nM]	apparent KD of MS2 coat protein (input ligand: none) [nM]	apparent KD of MS2 coat protein [2] [nM]	apparent KD of MS2 coat protein [3] [nM]	apparent KD of MS2 coat protein [4] [nM]
UGUUGUCGCGUAGGAUAUGUAUGAGGAUCACCCAUAAGAGUAUAUUUACCAUGAGGAUCACCCAUGUAGAAGGACGGGACAACU [pwkr exNG2 2xF5 1xFMN.12] (Eterna round: R96, puzzle: Exclusion NG 2)	232	75.6	127	–	–	–
UGUUGUUACGCAGGAUAUGAGGAUCACCCAUAUUAGGAUAUCGAAAGAGAAGUUCUGAGGAUCACCCAGAAGGGCGGGUUAACA [pwkr exNG2 2xF5 2xFMN.35] (Eterna round: R96, puzzle: Exclusion NG 2)	117	37.8	53.2	–	–	–
UGUUGUUACGUAGGAUAUCCACCAACAGGUGGAAGGAUAUGUACGCAGAAGGUUCGCCAACAGGCGGAGAAGGACGGGUUAACA [pwkr exNG2 2xF7 2xFMN.27] (Eterna round: R96, puzzle: Exclusion NG 2)	1370	473	300	–	–	–
UGUUGUUCAGGAUAUGAUGUAUAAUACAUGAGGAUCACCCAUGUAGAUCCUGCUUUGGCGUCAGAAGGGAAUGUUG [salish99_ex5_r4_107] (Eterna round: R97, puzzle: Exclusion 5)	55.9	–	51.8	–	–	–
UGUUGUUGAUAGGAUAUACAGGUAGGAGUAGGAGUAGAAGGAUCUACAUGAGGAUCACCCAUGUAGGAGUGAGA [JR_E6_Sub002] (puzzle: Exclusion 6)	–	–	–	14.9	–	–
UGUUUAUAUGAAGGAUAUACUUAACAUGAGGAUCACCCAUGUGGUGUUGUGAGUGAGUGAGUUUAGUAGAAGGUCAAUUCUUUU [JMF's solution 97] (Eterna round: R96, puzzle: Exclusion NG 2)	996	553	425	–	–	–
UUAAAUCAUGUAGGAUAUGCAAGGCGAACCUAUGCAGAAGGACAUGAGGAUCACCCAUGUGCUGCGGUCUGCGUACAGAUCGCU [JL ENG1 1.02] (Eterna round: R96, puzzle: Exclusion NG 1)	503	30.7	39	–	–	–
UUAAAUCAUGUAGGAUAUGCAUAGCAAAGCUAUGCAGAAGGACAUGAGGAUCACCCAUGUGCUUGCGUCCGCGUACGGAUGCUA [Mat - Exclusion NG 1 - Mod of JL - D68] (Eterna round: R96, puzzle: Exclusion NG 1)	733	90.5	138	–	–	–
UUAAAUCAUGUAGGAUAUGCGUGGAGAAGCUAUGCAGAAGGACAUGAGGAUCACCCAUGUGCUUCCGUCUGAGAACAGACGGUA [Mat - Exclusion NG 1 - Mod of JL - D13] (Eterna round: R96, puzzle: Exclusion NG 1)	210	49.9	45.7	–	–	–
UUAAAUCAUGUAGGAUAUGCGUGGCGAAGCUAUGCAGAAGGACAUGAGGAUCACCCAUGUGCUAGCGUCUGCGUACAGAUGCAA [JL ENG1 1.11] (Eterna round: R96, puzzle: Exclusion NG 1)	189	65.2	76.7	–	–	–
UUAACAUGCUGGUGAUCAUACAUGAGGAUCACCCAUGUAACAAGCUUUUUGCUCGUCUUAUAAGAUUACUAGUAUGU [Stov1/10-A1] (Eterna round: R97, puzzle: Sensor, turn-off variant 1)	24.2	–	26.4	–	–	–
UUAACCAGAGGAUAUGCGAAUAAAUAAAACUUUUUUUUUUAACAUGAGGAUCACCCAUGUAGAAGGCUGCAAUU [Ex2 #31] (Eterna round: R97, puzzle: Exclusion 2)	32	–	46.8	–	–	–
UUAAGUAUAGAGGAUAUAUAAUAUUUAUUAACUAUAGAAGGCUAUACAUGAGGAUCACCCAUGUAUAUUGGGAU [JR_Ex6_Sub067] (Eterna round: R97, puzzle: Exclusion 6)	59.1	–	41	–	–	–
UUAAUGGCUGUGAGGAUAUCGGAUAGAUAGAUAUUCGAGAAGGCACAUGAGGAUCACCCAUGUGUGAUCAGAGA [Brourd's EX4 #62] (Eterna round: R97, puzzle: Brourd's mod of Exclusion 4)	466	–	144	–	–	–
UUAAUGGUUGUGAGGAUAUCGGAUAGAUAGAUAUUCGAGAAGGCACAUGAGGAUCACCCAUGUGUGAUCAGAAA [Brourd's EX4 #61] (Eterna round: R97, puzzle: Brourd's mod of Exclusion 4)	410	–	202	–	–	–
UUAAUUAAUUAAUUAGAUCCUCACAUGAGGAUCACCCAUGUGCAGGAUAUCAGCUCGAUUAGAGCUGAGAAGGGCACUAUUAAU [ExNG3/10-B4] (Eterna round: R96, puzzle: Exclusion NG 3)	56.1	85	127	–	–	–
UUAAUUAAUUUAUUAGAUCCUCACAUGAGGAUCACCCAUGUGCAGGAUAUCAGCUCGUGUAGAGCUGAGAAGGGCACUAUAAAU [ExNG3/10-B3] (Eterna round: R96, puzzle: Exclusion NG 3)	29.8	61.5	116	–	–	–

Sequence	apparent KD of MS2 coat protein (input ligand: FMN 200 uM) [nM]	apparent KD of MS2 coat protein [1] [nM]	apparent KD of MS2 coat protein (input ligand: none) [nM]	apparent KD of MS2 coat protein [2] [nM]	apparent KD of MS2 coat protein [3] [nM]	apparent KD of MS2 coat protein [4] [nM]
UUACUGUGAGGAUAUUACAUUUAGCGGCUAGCAACUAGGGAUAAGAAGGCACAUGAGGAUCACCCAUGUCCCGU [Eternabot (L1) Solution 35] (Eterna round: R97, puzzle: Exclusion 4)	95.7	–	21.5	–	–	–
UUAGAUUAUUGAGGAUAUGGAUCUUAUUAUUAACCAGAAGGCAAACUCAACAUGAGGAUCACCCAUGUAUAAAGGGUAUUAGUU [JR_ExcNG1_Sub099] (Eterna round: R96, puzzle: Exclusion NG 1)	–	62.8	–	–	–	–
UUAGUGUAAGGAUAUGCAAACCACGGAAAUAAAACGUGGAGGUAGAAGGUACAUGAGGAUCACCCAUGUUAAAC [Mod of Anonveat 25 - Jieux - Exclusion 4] (Eterna round: R97, puzzle: Exclusion 4)	34	–	20.2	–	–	–
UUAGUGUGAGGAUAUGGUAAAGAUAAGAUGAUGAAAGAACUCCAGAAGGCACAUGAGGAUCACCCAUGUAGAUG [JL-ex4-2.13 Jieux mod] (puzzle: Exclusion 4)	–	–	–	35.4	67.4	30.6
UUAUACGCUGAGGAUAUCUUCACUGAGAGGUGAAGAGAAGGCGGUACAUGAGGAUCACCCAUGUCUAUGGGCAG [Ex-6 Malc#20] (puzzle: Exclusion 6)	–	–	–	312	376	479
UUAUACGUUGAGGAUAUGUCAUUUAGUAUAGUUACAGAAGGCGAUACAUGAGGAUCACCCAUGUUUAUGGGCAU [Ex-6 Malc#2] (puzzle: Exclusion 6)	–	–	–	166	–	–
UUAUCUACUGAGGAUAUUAUAUCACCCGACUGAUAAGAAGGCAGUACAUGAGGAUCACCCAUGUGGGUAGCCAU [Polaris10] (Eterna round: R97, puzzle: Exclusion 6)	43	–	32.6	–	–	–
UUAUUAUAUGUAGGAUAUGCAUAUUGUUGUUAUGCAGAAGGACAUGAGGAUCACCCAUGUAUAUUAUUGUUAUGUAUUAUAUAU [Title] (Eterna round: R96, puzzle: Exclusion NG 1)	64.7	23.3	37.1	–	–	–
UUAUUAUAUGUAGGAUAUGCGUAUUAUUGUUAUGCAGAAGGACAUGAGGAUCACCCAUGUAUAUUAUUGUUAUGUAUUAUAUAU [Title] (Eterna round: R96, puzzle: Exclusion NG 1)	–	26.6	–	–	–	–
UUAUUGUAUGUAGGAUAUGCAUAUUAUUAUUAUGCAGAAGGACAUGAGGAUCACCCAUGUAUAUUAUUAUUAUAUAUUAUAUAU [Title] (Eterna round: R96, puzzle: Exclusion NG 1)	–	24.6	–	–	–	–
UUAUUUAGGUAGGAUAUCGAUACCAAUUACUAUCGAGAAGGGUCUACAUGAGGAUCACCCAUGUUAGCAUGUUU [LRO-Excl6-12-Rocketman] (Eterna round: R97, puzzle: Exclusion 6)	26.4	–	24.9	–	–	–
UUAUUUAGUGUGAGGAUAUGCUGGUCCUUGGAUCAGCAGAAGGCACAUGAGGAUCACCCAUGUAAUAUAUUAAU [JL bmx4 3.06] (puzzle: Brourd's mod of Exclusion 4)	–	–	–	73.1	–	–
UUAUUUAGUGUGAGGAUAUGCUGGUCGAUAGAUCAGCAGAAGGCACAUGAGGAUCACCCAUGUAAUAUAUUAAU [Mat - Exclusion 4 - JL Mod - D33] (puzzle: Brourd's mod of Exclusion 4)	–	–	–	50	395	72.7
UUCACAUGGACAUGAGAUCACAUGAGGAUCACCCAUGUGAAUAACAAGCUUUUUGCUCGUCUUAUGUCCAAUAAUAU [Stov1/14-C3] (Eterna round: R97, puzzle: Sensor, turn-off variant 1)	13.1	–	13.1	–	–	–
UUCAUGUAAGGAUAUGUAGUGAUGACGAAAUUUGUCGUUAAACAGAAGGUACAUGAGGAUCACCCAUGUAGCUA [EX4 B.9] (Eterna round: R97, puzzle: Exclusion 4)	133	–	27.4	–	–	–
UUCCAACAUGAGGAUCACCCAUGUCAGGAUAUCUAGGCUACUGCUACCACAAUUAGCUAGAGAAGGGACAAGAU [EX1 B.14] (Eterna round: R97, puzzle: Exclusion 1)	26.1	–	19.5	–	–	–
